± gives the uncertainty stated by the source.

This data set is described as follows: self-splicing fitness, log relative to wild type (ln ratio); higher = more splicing; Tetrahymena group I intron in knt gene, E. coli kanamycin selection, DiMSum; sequences stand for … in CUCUCU…GGAGGGAAAAGUUAUCAGGCAUGCACCUGGUAGCUAGUCUUUAAACCAAUAGAUUGCAUCGGUUUAAAAGGCAAGACCGUCAAAUUGCGGGAAAGGGGUCAACAGCCGUUCAGUACCAAGUCUCAGGGGAAACUUUGAGAUGGCCUUGCAAAGGGUAUGGUAAUAAGCUGACGGACAUGGUCCUAACCACGCAGCCAAGUCCUAAGUCAACAGAUCUUCUGUUGAUAUGGAUGCAGUUCACAGACUAAAUGUCGGUCGGGGAAGAUGUAUUCUUCUCAUAAGAUAUAGUCGGACCUCUCCUUAAUGGGAGCUAGCGGAUGAAGUGAUGCAACACUGGAGCCGCUGGGAACUAAUUUGUAUGCGAAAGUAUAUUGAUUAGUUUUGGAGUACUCGUGGUCG
The essentials: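 Six replicate transformations of E. coli BL21(DE3) with a pET-22b(+) library were grown overnight at 37°C or 30°C. The library randomised all eight P1ex-region intron nucleotides, the intron lying in the knt kanamycin-resistance gene, and plates were LB agar with or without 25 μg/mL kanamycin plus 100 μg/mL carbenicillin, 50 μM IPTG and 0.2% rhamnose. Pooled colonies were amplicon-sequenced on an Illumina HiSeq 2500, and fitness is the DiMSum error-weighted combination of wild-type-normalised replicate fold changes, kanamycin versus none.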

Take CCUAAGCAAUAUUACGUAGA: the “self-splicing fitness (ln)” value (30 °C) is -1.33 ± 0.08 and the “self-splicing fitness (ln)” value (37 °C) is -0.523 ± 0.1. For ACCCAGCAAUAUUACGUCUG, in that order: -3.16 ± 0.12 and -2.79 ± 0.14.

Regarding CUGGAGCAAUAUUACGGAUC, the “self-splicing fitness (ln)” value is -2.82 ± 0.21 (30 °C) and -2.87 ± 0.35 (37 °C). As for UUGGAGCAAUAUUACGUUGU, the “self-splicing fitness (ln)” value by setting is: (30 °C) -4.09 ± 0.36; (37 °C) -1.77 ± 0.26. As for CAGCAGCAAUAUUACGAUAC, the “self-splicing fitness (ln)” value is, setting by setting: (30 °C) -3.52 ± 0.33; (37 °C) -3.45 ± 0.4. As for CGCGAGCAAUAUUACGUCUU, the “self-splicing fitness (ln)” value reads like this: (30 °C) -2.32 ± 0.2; (37 °C) -2.05 ± 0.24. Turning to UGAUAGCAAUAUUACGGGUC, the “self-splicing fitness (ln)” value is -4.2 ± 0.34 (30 °C) and -2.63 ± 0.37 (37 °C). On to UAUUAGCAAUAUUACGCGAA, for which the “self-splicing fitness (ln)” value runs as follows: (30 °C) -2.22 ± 0.29; (37 °C) -0.951 ± 0.17.

Consider GGGUAGCAAUAUUACGCUAC, for which the “self-splicing fitness (ln)” value (30 °C) is -1.81 ± 0.34. As to CGGAAGCAAUAUUACGUGGC, the “self-splicing fitness (ln)” value was -3.67 ± 0.18 (30 °C) and -2.54 ± 0.23 (37 °C).

For UCUCAGCAAUAUUACGGUAC, the “self-splicing fitness (ln)” value is -3.18 ± 0.35 (30 °C) and -2.52 ± 0.34 (37 °C).

Consider GGGCAGCAAUAUUACGGAGU, for which the “self-splicing fitness (ln)” value by setting is: (30 °C) -2.8 ± 0.12; (37 °C) -1.78 ± 0.11. For the sequence CAACAGCAAUAUUACGGCGC, the “self-splicing fitness (ln)” value is, setting by setting: (30 °C) -1.94 ± 0.076; (37 °C) -1.24 ± 0.096. Consider GUCGAGCAAUAUUACGCGUG, for which the “self-splicing fitness (ln)” value was -1.25 ± 0.16 (30 °C) and -1.24 ± 0.21 (37 °C). Turning to AGGUAGCAAUAUUACGGAGA, the “self-splicing fitness (ln)” value runs as follows: (30 °C) -3.57 ± 0.037; (37 °C) -2.82 ± 0.043. For ACAUAGCAAUAUUACGCUGC, in that order: -2.01 ± 0.22 and -0.747 ± 0.15. On to UCUUAGCAAUAUUACGGCGA, for which the “self-splicing fitness (ln)” value reads like this: (30 °C) -0.253 ± 0.15; (37 °C) -0.295 ± 0.13. On to CGAAAGCAAUAUUACGCGAU, for which the “self-splicing fitness (ln)” value by setting is: (30 °C) -2.86 ± 0.21; (37 °C) -2.15 ± 0.34. In the case of UGUAAGCAAUAUUACGAAAC, the “self-splicing fitness (ln)” value was -4.22 ± 0.3 (30 °C) and -2.95 ± 0.25 (37 °C).

As to UACCAGCAAUAUUACGGCUU, the “self-splicing fitness (ln)” value is -0.562 ± 0.061 (30 °C) and 0.59 ± 0.097 (37 °C). On to CUGAAGCAAUAUUACGUUCU, for which the “self-splicing fitness (ln)” value by setting is: (30 °C) -3.39 ± 0.22; (37 °C) -3.45 ± 0.37.

Take UGAGAGCAAUAUUACGCAUC: the “self-splicing fitness (ln)” value by setting is: (30 °C) -4.1 ± 0.46; (37 °C) -1.8 ± 0.19. Consider ACCCAGCAAUAUUACGCUUU, for which the “self-splicing fitness (ln)” value runs as follows: (30 °C) -0.704 ± 0.049; (37 °C) 0.0854 ± 0.064.

Regarding CUCGAGCAAUAUUACGGACG, the “self-splicing fitness (ln)” value is, setting by setting: (30 °C) -2.4 ± 0.15; (37 °C) -2.25 ± 0.23. In the case of GCCAAGCAAUAUUACGGGGA, the “self-splicing fitness (ln)” value (30 °C) was -0.604 ± 0.065 and the “self-splicing fitness (ln)” value (37 °C) came to 0.0408 ± 0.085. As to GUGCAGCAAUAUUACGUACA, the “self-splicing fitness (ln)” value (37 °C) was -2.03 ± 0.34.

AACAAGCAAUAUUACGGCGU: the “self-splicing fitness (ln)” value by setting is: (30 °C) -0.173 ± 0.063; (37 °C) 0.163 ± 0.071. Take CUCAAGCAAUAUUACGACUU: the “self-splicing fitness (ln)” value (30 °C) is -2.2 ± 0.18. As to CUACAGCAAUAUUACGACAU, the “self-splicing fitness (ln)” value reads like this: (30 °C) -3.878 ± 0.021; (37 °C) -2.67 ± 0.037. As for CUGAAGCAAUAUUACGAGGG, the “self-splicing fitness (ln)” value runs as follows: (30 °C) -2.03 ± 0.11; (37 °C) -1.25 ± 0.14. For AUUAAGCAAUAUUACGACUU, in that order: 0.276 ± 0.082 and -0.0124 ± 0.11. As for CUAAAGCAAUAUUACGGACU, the “self-splicing fitness (ln)” value is -3.93 ± 0.25 (30 °C) and -1.9 ± 0.27 (37 °C). Consider UGUAAGCAAUAUUACGGUUU, for which the “self-splicing fitness (ln)” value (30 °C) was -2.96 ± 0.16 and the “self-splicing fitness (ln)” value (37 °C) is -1.68 ± 0.18. Take CACAAGCAAUAUUACGUUGA: the “self-splicing fitness (ln)” value runs as follows: (30 °C) -3.84 ± 0.2; (37 °C) -1.64 ± 0.1. For AGUAAGCAAUAUUACGCCGA, in that order: -1.31 ± 0.45 and -0.709 ± 0.46. For the sequence UAAAAGCAAUAUUACGCGUG, the “self-splicing fitness (ln)” value runs as follows: (30 °C) -0.88 ± 0.049; (37 °C) -0.0179 ± 0.066. For AAGGAGCAAUAUUACGUCCG, the “self-splicing fitness (ln)” value reads like this: (30 °C) -1.79 ± 0.2; (37 °C) -1.03 ± 0.28.

For UUUGAGCAAUAUUACGUAUA, the “self-splicing fitness (ln)” value (30 °C) is -2.78 ± 0.3 and the “self-splicing fitness (ln)” value (37 °C) is -2.67 ± 0.36.
